Measurements reported in PMC6331642.

B1: WLN4, the fourth metal-binding domain of Wilson's disease protein (ATP7B) (protein)
chain: TCSTTLIAIAGMTCASCVHSIEGMISQLEGVQQISVSLAEGTATVLYNPSVISPEELRAAIEDMGFEASVVS
B2: Atox1 copper chaperone (protein)
chain: MPKHEFSVDMTCGGCAEAVSRVLNKLGGVKYDIDLPNKKVCIESEHSMDTLLATLKKTGKTVSYLGLE

Assays:
P35670 [1] = experiment: SEC-MALS; apo-WLN4 after incubation with TM; Superdex 75 10/300 GL, 50 mM MES pH 6.0, 150 mM NaCl, room temperature
P35670 [2] = experiment: SEC-MALS; Cu-WLN4 after incubation with TM; Superdex 75 10/300 GL, 50 mM MES pH 6.0, 150 mM NaCl, room temperature
O00244 [3] = experiment: SEC-MALS; apo-Atox1 after reaction with TM, with 4.5 mM reducing agents
O00244 [4] = experiment: SEC-MALS; Cu-Atox1 after reaction with TM, with 4.5 mM reducing agents

Protein | N with TM (P35670 [1]) | N with TM (P35670 [2]) | N with TM (O00244 [3]) | N with TM (O00244 [4])
B1 | 2 | 2 |  | 
B2 |  |  | both apo-Atox1 and Cu-Atox1 generated dimeric adducts following reaction with TM | both apo-Atox1 and Cu-Atox1 generated dimeric adducts following reaction with TM
